Stoichiometry N and mass fraction of the 6-mer peak data for 3 substances are collected here from article PMC8012802.

Holding throughout (assay): SEC-MALS; MiniDAWN TREOS II with Superdex 200 10/300 increase, 20 mM Tris-HCl pH 8.0, 100 mM NaCl, 0.5 ml/min; monomer and 6-mer peaks
The target of test [1] is OrfG C-terminal subdomain (OrfG_(223–331): from Ala223 to Asp331) (Streptococcus thermophilus (ICESt3)).
Test [2] deals with OrfG central domain (OrfG_(64–204): from Ser64 to Ala204) (Streptococcus thermophilus (ICESt3)).
Test [3] has as its target OrfG soluble domain (OrfG_(64–331): from Ser64 to Asp331) (Streptococcus thermophilus (ICESt3)).

For orientation: stoichiometry N means the number of molecules, sites or subunits per partner or assembly. Consider “OrfG C-terminal subdomain (OrfG_(223–331): from Ala223 to Asp331) (domain or fragment)”, for which, in test [1], the stoichiometry N turned out to be 6. As to “OrfG central domain (OrfG_(64–204): from Ser64 to Ala204) (domain or fragment)”, the stoichiometry N in test [2] was 6. With “OrfG soluble domain (OrfG_(64–331): from Ser64 to Asp331) (domain or fragment)”, in test [3], the mass fraction of the 6-mer peak came out at 2.7% and the stoichiometry N came out at 6.
